In article PMC7062162:

What was measured:
[1] = biological target: A6G peptide-DR1 complex (human)
[2] = biological target: A6E peptide-DR1 complex (human)
[3] = biological target: OPT1 Y1A peptide-DR1 complex (human)
[4] = biological target: 0410 Y1A peptide-DR1 complex (human)
[5] = biological target: Y1I peptide-DR1 complex (human)
[6] = biological target: I9E peptide-DR1 complex (human); test: fluorescence polarisation; real-time fluorescence anisotropy of Alexa Fluor 488-peptide leaving DR1 (50 nM complex) with titrated HLA-DM (up to 90 μM) and 20 μM unlabeled competitor peptide; 250 mM citrate, 150 mM NaCl, pH 5.0, 37 °C; kobs fitted to a Michaelis-Menten model, Km taken as Kd of DM for the pMHCII (OPT1-DR1: initial velocities, Lineweaver-Burk)
[7] = biological target: L4R peptide-DR1 complex (human)
[8] = biological target: L4G peptide-DR1 complex (human)
[9] = biological target: L4G′ peptide-DR1 complex (human)

Substance: soluble recombinant HLA-DM (DMA*0101/DMB*0101) (complex)
- kcat, fold change against OPT1-DR1 [1]: 2 fold
- kcat, fold change against OPT1-DR1 (A6E) [2]: > 200 fold
- kcat, fold change against the A6G complex (G6E) [2]: > 100 fold
- kcat, fold change against OPT1-DR1 [3]: > 2600 fold
- kcat, fold change against the 0410 complex [4]: 8 fold
- kcat, fold change against the homologous complex with Tyr at P1 [5]: 18 fold
- fold decrease in Km against the homologous complex with Ile at P9 [6]: 9 fold
- kcat, fold change against OPT1-DR1 [7]: > 1300 fold
- kcat, fold change against OPT1-DR1 [8]: > 120 fold
- kcat, fold change against the I9E complex [9]: 510 fold
